Measurements as given in patent US20250136721A1 (GlaxoSmithKline, published 2025).
Substitutions are numbered along the chain they refer to. “And” between values parts separate entries of the source, which are not always exact repeats. Equal values may be shown once. Read-outs that look alike come from different tables or passages of the source.

Legend:
[1] = molecular target: T1, cynomolgus monkey TNFR1 (on monkey cells) (cynomolgus monkey, UniProt Q2PFV5 30-455); assay: cell-based or functional assay
T1 sequence: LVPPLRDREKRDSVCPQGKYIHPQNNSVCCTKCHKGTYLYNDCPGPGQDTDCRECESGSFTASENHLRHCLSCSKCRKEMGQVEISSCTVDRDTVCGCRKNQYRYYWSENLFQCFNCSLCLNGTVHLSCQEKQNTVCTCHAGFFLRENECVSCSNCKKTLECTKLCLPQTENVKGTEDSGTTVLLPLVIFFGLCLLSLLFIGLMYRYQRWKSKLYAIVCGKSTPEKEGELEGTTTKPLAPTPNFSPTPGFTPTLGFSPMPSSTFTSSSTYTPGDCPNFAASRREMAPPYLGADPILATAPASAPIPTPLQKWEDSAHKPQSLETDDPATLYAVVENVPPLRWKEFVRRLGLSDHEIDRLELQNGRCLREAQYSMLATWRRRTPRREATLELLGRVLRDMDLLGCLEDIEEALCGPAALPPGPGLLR

[2] = molecular target: T2, human TNFR1 (on human cells) (human, UniProt P19438 30-455); assay: cell-based or functional assay
T2 sequence (looked up): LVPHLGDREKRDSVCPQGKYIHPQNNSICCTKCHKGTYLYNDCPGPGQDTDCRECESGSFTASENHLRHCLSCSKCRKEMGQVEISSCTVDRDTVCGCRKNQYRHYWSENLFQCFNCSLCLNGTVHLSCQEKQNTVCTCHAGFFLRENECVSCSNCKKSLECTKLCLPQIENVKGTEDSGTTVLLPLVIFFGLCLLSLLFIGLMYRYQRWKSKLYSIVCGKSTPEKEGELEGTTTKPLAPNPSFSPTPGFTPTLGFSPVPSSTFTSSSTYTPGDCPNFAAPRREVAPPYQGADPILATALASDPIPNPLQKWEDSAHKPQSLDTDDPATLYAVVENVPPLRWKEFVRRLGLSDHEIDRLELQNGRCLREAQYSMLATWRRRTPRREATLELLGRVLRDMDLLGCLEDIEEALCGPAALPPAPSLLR

[3] = molecular target: T3, cynomolgus monkey TNFR1 (cynomolgus monkey, UniProt Q2PFV5 30-211); assay: SPR (Biacore T100), same format with cynomolgus monkey TNFR1, dAb as analyte, 1:1 model
T3 sequence: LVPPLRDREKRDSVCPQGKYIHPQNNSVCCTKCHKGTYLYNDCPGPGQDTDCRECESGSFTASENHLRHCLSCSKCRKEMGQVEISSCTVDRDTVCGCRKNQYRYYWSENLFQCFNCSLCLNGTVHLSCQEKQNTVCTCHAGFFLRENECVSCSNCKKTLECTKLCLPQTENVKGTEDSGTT

[4] = molecular target: T4, Recombinant human TNFR1-Fc (human, UniProt P19438 30-211, limits assumed); assay: SPR (Biacore T100): TNFR1:Fc captured by anti-human IgG on a CM4 chip, dAb as analyte, 1:1 model
T4 construct: bought reagent; also called hTNFR1:Fc; not shown: Fc part; not described
T4 sequence (looked up): T3 sequence with P4H, R6G, V28I, Y105H, T159S, T170I

[5] = molecular target: pre-existing anti-VH ADA in human serum; assay: ADA confirmation assay (MSD): 10 ug/mL test material against labelled DOM1H-131-206, mean of 10 sera
[6] = molecular target: pre-existing anti-VH ADA in human serum; assay: ADA confirmation assay (MSD): 10 ug/mL test material against labelled DOM1H-131-206; share of 10 ADA-positive sera with binding
[7] = molecular target: T4, Recombinant human TNFR1-Fc; assay: ELISA: dAb on coated recombinant human TNFR1-Fc, anti-Vh detection
[8] = molecular target: pre-existing anti-VH ADA in human serum; assay: ADA confirmation assay (MSD): 10 ug/mL test material against labelled DOM1H-131-206, mean of 10 sera; remark: listed apart in the source
[9] = molecular target: pre-existing anti-VH ADA in human serum; assay: ADA confirmation assay (MSD): 10 ug/mL test material against labelled DOM1H-131-206; share of 10 ADA-positive sera with binding; remark: listed apart in the source
[10] = molecular target: pre-existing anti-VH ADA in human serum; assay: ADA confirmation assay of Example 2 (MSD): test material against labelled DOM1H-131-206
[11] = molecular target: pre-existing anti-VH ADA in human serum; assay: ADA confirmation assay (MSD) described previously, mean of 10 donor sera
[12] = molecular target: T4, Recombinant human TNFR1-Fc; assay: ELISA: dAb on coated recombinant human TNFR1-Fc

B1: DOM1H-131-206 (other)
VH: EVQLLESGGGLVQPGGSLRLSCAASGFTFAHETMVWVRQAPGKGLEWVSHIPPDGQDPFYADSVKGRFTISRDNSKNTLYLQMNSLRAEDTAVYHCALLPKRGPWFDYWGQGTLVTVSS
notes: human anti-TNFR1 VH domain antibody (dAb); biotinylated or Sulfo-Tag labelled where it is the assay reagent
IC50, inhibition of LPS-induced IL-8, Cynomolgus monkey whole blood (n = 3) [1]: 0.5 nM
IC50, inhibition of TNFα-induced IL-8, CYNOMK1 Cynomolgus monkey skin fibroblasts (n = 2) [1]: 4.8 nM
IC50, inhibition of TNFα-induced IL-8, A549 human lung epithelium (n = 2) [2]: 1 nM
IC50, inhibition of TNFα-induced IL-8, Human whole blood (n = 3-5) [2]: 1.6 nM
IC50, inhibition of TNFα-induced IL-8, MRC5 human lung fibroblast (n = 3) [2]: 4.8 nM
Kd [3]: 0.015 nM
koff [3]: 0.000151 s⁻¹
kon [3]: 1.01e+07 M⁻¹ s⁻¹
Kd [4]: 0.0143 nM
koff [4]: 0.000142 s⁻¹
kon [4]: 9.94e+06 M⁻¹ s⁻¹
Mean % inhibition of signal in confirmation assay [5]: 96.1% and 99.5%
% subjects with ADA binding (10 subjects) (% of subjects) [6]: 100

B2: DOM1H-131-206 A84T (other, name in Kabat numbering)
VH: B1 VH with A88T
notes: VH dAb variant
EC50 [7]: 0.79 nM
Mean % inhibition of signal in confirmation assay [8]: 91%
% subjects with ADA binding (10 subjects) (% of subjects) [9]: 100

B3: Clone VHH2(f) (VHH)
VHH: EVQLVESGGGLVQPGGSLRLSCAASGRTFSYNPMGWFRQAPGKGRELVAAISRTGGSTYYPDSVEGRFTISRDNAKRMVYLQMNSLRAEDTAVYYCAAAGVRAEDGRVRTLPSEYTFWGQGTQVTVSSAAAEVQLVESGGGLVQPGGSLRLSCAASGRTFSYNPMGWFRQAPGKGRELVAAISRTGGSTYYPDSVEGRFTISRDNAKRMVYLQMNSLRAEDTAVYYCAAAGVRAEDGRVRTLPSEYTFWGQGTQVTVSS
Mean % Inhibition [10]: 94.2%

B4: VHH2(f) + A (VHH)
VHH: EVQLVESGGGLVQPGGSLRLSCAASGRTFSYNPMGWFRQAPGKGRELVAAISRTGGSTYYPDSVEGRFTISRDNAKRMVYLQMNSLRAEDTAVYYCAAAGVRAEDGRVRTLPSEYTFWGQGTQVTVSSAAAEVQLVESGGGLVQPGGSLRLSCAASGRTFSYNPMGWFRQAPGKGRELVAAISRTGGSTYYPDSVEGRFTISRDNAKRMVYLQMNSLRAEDTAVYYCAAAGVRAEDGRVRTLPSEYTFWGQGTQVTVSSA
Mean % Inhibition [10]: 17.5%

B5: DOM10H-53-567 C-terminal A (protein)
VH: GVQLLESGGGLVQPGGSLRLSCAASGFVFAWYDMGWVRQAPGKGLEWVSSIDWHGEVTYYADSVKGRFTISRDNSKNTLYLQMNSLRAEDTAVYYCATAEDEPGYDYWGQGTLVTVSSA
% inhibition in confirmation assay [11]: 12.8%

B6: DOM10H-53-567 C-terminal AS (protein)
VH: GVQLLESGGGLVQPGGSLRLSCAASGFVFAWYDMGWVRQAPGKGLEWVSSIDWHGEVTYYADSVKGRFTISRDNSKNTLYLQMNSLRAEDTAVYYCATAEDEPGYDYWGQGTLVTVSSAS
% inhibition in confirmation assay [11]: 14.8%

B7: DOM10H-53-567 C-terminal AST (protein)
VH: GVQLLESGGGLVQPGGSLRLSCAASGFVFAWYDMGWVRQAPGKGLEWVSSIDWHGEVTYYADSVKGRFTISRDNSKNTLYLQMNSLRAEDTAVYYCATAEDEPGYDYWGQGTLVTVSSAST
% inhibition in confirmation assay [11]: 29%

B8: DOM10H-53-567 C-terminal ASTK (protein)
VH: GVQLLESGGGLVQPGGSLRLSCAASGFVFAWYDMGWVRQAPGKGLEWVSSIDWHGEVTYYADSVKGRFTISRDNSKNTLYLQMNSLRAEDTAVYYCATAEDEPGYDYWGQGTLVTVSSASTK
% inhibition in confirmation assay [11]: 27.7%

B9: DOM10H-53-567 C-terminal ASTKG (protein)
VH: GVQLLESGGGLVQPGGSLRLSCAASGFVFAWYDMGWVRQAPGKGLEWVSSIDWHGEVTYYADSVKGRFTISRDNSKNTLYLQMNSLRAEDTAVYYCATAEDEPGYDYWGQGTLVTVSSASTKG
% inhibition in confirmation assay [11]: 13.4%

B10: DOM1H-131-206 with a C-terminal alanine extension (other)
VH: EVQLLESGGGLVQPGGSLRLSCAASGFTFAHETMVWVRQAPGKGLEWVSHIPPDGQDPFYADSVKGRFTISRDNSKNTLYLQMNSLRAEDTAVYHCALLPKRGPWFDYWGQGTLVTVSSA
notes: VH dAb variant
IC50, inhibition of LPS-induced IL-8, Cynomolgus monkey whole blood (n = 3) [1]: 0.4 nM
IC50, inhibition of TNFα-induced IL-8, CYNOMK1 Cynomolgus monkey skin fibroblasts (n = 2) [1]: 4.7 nM
IC50, inhibition of TNFα-induced IL-8, A549 human lung epithelium (n = 2) [2]: 1 nM
IC50, inhibition of TNFα-induced IL-8, Human whole blood (n = 3-5) [2]: 0.9 nM
IC50, inhibition of TNFα-induced IL-8, MRC5 human lung fibroblast (n = 3) [2]: 3.5 nM
Kd [3]: 0.0197 nM
koff [3]: 0.000189 s⁻¹
kon [3]: 9.6e+06 M⁻¹ s⁻¹
Kd [4]: 0.0253 nM
koff [4]: 0.000229 s⁻¹
kon [4]: 9.02e+06 M⁻¹ s⁻¹
Mean % inhibition of signal in confirmation assay [5]: 15.7%
Mean % inhibition of signal in confirmation assay [8]: 1.12%

B11: DOM1H-131-206 C-terminal ASTKGP (other)
VH: EVQLLESGGGLVQPGGSLRLSCAASGFTFAHETMVWVRQAPGKGLEWVSHIPPDGQDPFYADSVKGRFTISRDNSKNTLYLQMNSLRAEDTAVYHCALLPKRGPWFDYWGQGTLVTVSSASTKGP
notes: VH dAb variant
fold change of EC50 against the parental dAb DOM1H-131-206 [12]: ~5 fold
Mean % inhibition of signal in confirmation assay [5]: 42.6%
% subjects with ADA binding (10 subjects) (% of subjects) [6]: 60
